Data reported in US8822187B1, “Polypeptides, nucleic acid molecules, and methods for synthesis of triterpenes” (University of Kentucky Research Foundation, priority 2011, dated 2014).

B1: Botryococcus braunii race B squalene synthase-like 1 (SSL-1), wild type, hexa-histidine tagged, SEQ ID NO: 2 (Botryococcus braunii) (protein)
chain: MTMHQDHGVMKDLVKHPNEFPYLLQLAATTYGSPAAPIPKEPDRAFCYNTLHTVSKGFPRFVMRLPQELQDPICIFYLLLRALDTVEDDMNLKSETKISLLRVFHEHCSDRNWSMKSDYGIYADLMERFPLVVSVLEKLPPATQQTFRENVKYMGNGMADFIDKQILTVDEYDLYCHYVAGSCGIAVTKVIVQFNLATPEADSYDFSNSLGLLLQKANIITDYNEDINEEPRPRMFWPQEIWGKYAEKLADFNEPENIDTAVKCLNHMVTDAMRHIEPSLKGMVYFTDKTVFRALALLLVTAFGHLSTLYNNPNVFKEKVRQRKGRIARLVMSSRNVPGLFRTCLKLANNFESRCKQETANDPTVAMTIKRLQSIQATCRDGLAKYDTPSGLKSFCAAPTPTK
B2: SSL-2: Botryococcus braunii race B squalene synthase-like 2 enzyme; bacterial form is truncated SSL-2-tr2 (protein)
chain: MVKLVEVLQHPDEIVPILQMLHKTYRAKRSYKDPGLAFCYGMLQRVSRSFSVVIQQLPDELRHPICVFYLILRALDTVEDDMNLPNEVKIPLLRTFHEHLFDRSWKLKCGYGPYVDLMENYPLVTDVFLTLSPGAQEVIRDSTRRMGNGMADFIGKDEVHSVAEYDLYCHYVAGLVGSAVAKIFVDSGLEKENLVAEVDLANNMGQFLQKTNVIRDYLEDINEEPAPRMFWPREIWGKYAQELADFKDPANEKAAVQCLNHMVTDALRHCEIGLNVIPLLQNIGILRSCLIPEVMGLRTLTLCYNNPQVFRGVVKMRRGETAKLFMSIYDKRSFYQTYLRLANELEAKCKGEASGDPMVATTLKHVHGIQKSCKAALSSKELLAKSGSALTDDPAIRLLLLVGVVAYFAYAFNLGDVRGEHGVRALGSILDLSQKGLAVASVALLLLVLLARSRLPLLTSASSKQ

Legend:
[1] = Michaelis-Menten enzyme kinetics of the SSL-1 reaction (3H-FPP to PSPP); assay type: biochemical; settings: after acid phosphatase dephosphorylation
Procedure: FIG. 5 depicts Michaelis-Menten enzyme kinetics of the SSL-1 reaction. Enzyme assays (50 μl) were set up as described in the methods section with purified SSL-1 (0.2-1.0 μg), 0.1% triton X-100, ±2 mM NADPH, and the indicated concentration of ^3H-FPP. Assays were incubated for 15 min at 37° C. and stopped by addition of 50 μl 0.5 M EDTA. The reactions were then extracted 3× with 200 μl water saturated 1-butanol and pooled in a 4 ml glass screw cap vial. […] The standards were visualized with iodine vapors and the zones corresponding to FOH (rf=0.65) and PSOH (rf=0.45) were scraped and analyzed by scintillation spectroscopy. […] The data was analyzed using the SigmaPlot Enzyme Kinetics 1.3 software. […]
Typical enzyme assays were initiated by mixing aliquots of purified enzyme with 50 mM Mops, pH 7.3, 20 mM MgCl2, 2.5 mM 2-mercaptoethanol, 10 μM [1-^3H]-FPP (˜2×10^5 dpm total), and 2 mM NADPH in total reaction volume of 50 μl. […] The standards were visualized with iodine vapors and TLC zones corresponding to the standards were scrapped and analyzed by scintillation spectrometry. […] Extracts were resuspended in 50 μl hexane and an aliquot analyzed by GC-MS with a Varian CP-3800 GC coupled to a Varian Saturn 2200 MS/MS (Varian Medical Systems) using a Supelco SLB-5 ms fused silica capillary column (30 m×0.25 mm×0.25 μM film thickness, Supelco). […]

[2] = Purified SSL-1 mixed with B. braunii algal cell-free lysate, incorporation of radiolabeled FPP into botryococcene; assay type: biochemical, Botryococcus braunii; settings: purified SSL-1 mixed with algal cell-free lysate
Procedure: FIG. 4 depicts the dependence of the squalene synthase-like-1 enzyme on algal lysate for botryococcene biosynthesis. […] The SSL-1 gene containing a 5′ terminal sequence coding for a hexa-histidine tag was over-expressed in E. coli and the corresponding enzyme purified by cobalt affinity chromatography according to the manufacturer (Sigma). B. braunii lysate was prepared from cells collected at the indicated stages of culture development according to the procedure described by Okada, S. et al. (Arch Biochem Biophys 422: 110-118) and 10 μg of lysate protein was used per assay. Assays were incubated at 37° C. for 1 h, then the reaction products extracted with hexane. Aliquots of the hexane extracts was separated by silica TLC and the radioactivity migrating to zones corresponding to authentic standards of botryococcene and squalene determined by scintillation counting. Data represents mean±s.e.m.
Typical enzyme assays were initiated by mixing aliquots of purified enzyme with 50 mM Mops, pH 7.3, 20 mM MgCl2, 2.5 mM 2-mercaptoethanol, 10 μM [1-^3H]-FPP (˜2×10^5 dpm total), and 2 mM NADPH in total reaction volume of 50 μl. Reactions were incubated at 37° C. for 1 h and then extracted with 100 μl n-hexane or 100 ul MTBE. […] The standards were visualized with iodine vapors and TLC zones corresponding to the standards were scrapped and analyzed by scintillation spectrometry. […]

[3] = substrate: CC(C)=CCC/C(C)=C/CC/C(C)=C/CO[P@@](=O)(O)OP(=O)(O)O; assay: purified protein, by the assay type; settings: other: purified SSL-1, 3H-FPP, 0.1% triton X-100, 15 min at 37° C., PSPP as sole reaction product
[4] = NADPH oxidation versus squalene and bisfarnesyl ether recovery; assay type: biochemical
Procedure: With reference to Table 2, Assays were performed as described above in the Methods except that an alternative reaction buffer (50 mM Tris pH 8.0, 250 mM NaCl, 20 mM MgCl2) was used to minimize spontaneous NADPH oxidation and prevent protein precipitation at high concentrations. […] An extinction coefficient of 6220/M/cm was used to calculate the amount of NADPH oxidized. No NADPH oxidation could be measured in complete reaction buffer without protein over a 1 h incubation. […] This background NADPH oxidation was subtracted from the experimental determined rates. The experimental enzyme assays contained either purified TSS (0.75 or 1.5 μg) or SSL-2 (8 or 16 μg) and 40 μM ^3H-FPP. Absorbance at […] was recorded every 2.5 min. for 15 minutes, after which the reaction was stopped by adding an equal volume of 0.5 M EDTA. The reaction mixture was collected, extracted with 200 μl of hexane and aliquots were separated by silica TLC along with standards of squalene and bisfarnesyl ether using hexane:MTBE (25:1) as the developing solvent. The standards were subsequently visualized with iodine vapor, and corresponding zones analyzed by scintillation spectroscopy. Data represents mean±S.E.M of duplicate samples.

[5] = 100 μM NADPH, 40 μM 3H-FPP, 15 minutes, 23° C.

Row | Molecule | input radioactivity recovered as FOH and PSOH [1] | enhancement of NAD(P)H-dependent botryococcene biosynthesis [2] | Km [3] [µM] | kcat [3] [s⁻¹] | Bisfarnesyl ether formed [4] | NADPH oxidation not associated with squalene biosynthesis [4] [pmol] | NADPH oxidized [4] [pmol] | squalene biosynthesis [4] [pmol] | bisfarnesyl ether formed per mole equivalent of NADPH oxidation ([4]; 21 pmoles versus 2.4 pmoles) | pmoles bisfarnesyl ether recovered per μg protein [4, 5] [pmoles per μg protein] | pmoles squalene recovered per μg protein [4, 5] [pmoles per μg protein] | pmoles NADPH oxidized per μg protein ([4]; 100 μM NADPH, 40 μM FPP, 15 minutes, 23° C., background subtracted) [pmoles per μg protein] | NADPH oxidation rate in reaction buffer without FPP (background) ([4]; without FPP) [pmoles/μg protein/h]
1 | B1 | greater than 95% | up to 10 fold | 12.8 | 0.027 |  |  |  |  |  |  |  |  | 
2 | B2 |  |  |  |  | greater than 21 pmoles | 2.4 | 4.6 | 2.2 | about 10 times | 21.7 ± 1.8 | 2.2 ± 0.4 | 4.6 ± 2.6 | 22
